Results on two molecules are retold here after publication PMC10989685 (2024).

One may read the Kd as the concentration at which binding is half-saturated. Lower therefore signals a tighter complex. The koff is the rate constant with which the complex falls apart.

Experiment [1] concerns the target Neurexin2α (UniProt E9Q7X7). Briefly: SPR. On the technique in general: In SPR one partner is held on a chip, and binding of the other changes the refractive index at the surface.
The target in experiment [2] is Recombinant human His-tagged IgSF21 protein (R&D Systems #10330-S2) (human, UniProt Q96ID5 25-444). Briefly: SPR.

Sequence of Neurexin2α (E9Q7X7 29-1634): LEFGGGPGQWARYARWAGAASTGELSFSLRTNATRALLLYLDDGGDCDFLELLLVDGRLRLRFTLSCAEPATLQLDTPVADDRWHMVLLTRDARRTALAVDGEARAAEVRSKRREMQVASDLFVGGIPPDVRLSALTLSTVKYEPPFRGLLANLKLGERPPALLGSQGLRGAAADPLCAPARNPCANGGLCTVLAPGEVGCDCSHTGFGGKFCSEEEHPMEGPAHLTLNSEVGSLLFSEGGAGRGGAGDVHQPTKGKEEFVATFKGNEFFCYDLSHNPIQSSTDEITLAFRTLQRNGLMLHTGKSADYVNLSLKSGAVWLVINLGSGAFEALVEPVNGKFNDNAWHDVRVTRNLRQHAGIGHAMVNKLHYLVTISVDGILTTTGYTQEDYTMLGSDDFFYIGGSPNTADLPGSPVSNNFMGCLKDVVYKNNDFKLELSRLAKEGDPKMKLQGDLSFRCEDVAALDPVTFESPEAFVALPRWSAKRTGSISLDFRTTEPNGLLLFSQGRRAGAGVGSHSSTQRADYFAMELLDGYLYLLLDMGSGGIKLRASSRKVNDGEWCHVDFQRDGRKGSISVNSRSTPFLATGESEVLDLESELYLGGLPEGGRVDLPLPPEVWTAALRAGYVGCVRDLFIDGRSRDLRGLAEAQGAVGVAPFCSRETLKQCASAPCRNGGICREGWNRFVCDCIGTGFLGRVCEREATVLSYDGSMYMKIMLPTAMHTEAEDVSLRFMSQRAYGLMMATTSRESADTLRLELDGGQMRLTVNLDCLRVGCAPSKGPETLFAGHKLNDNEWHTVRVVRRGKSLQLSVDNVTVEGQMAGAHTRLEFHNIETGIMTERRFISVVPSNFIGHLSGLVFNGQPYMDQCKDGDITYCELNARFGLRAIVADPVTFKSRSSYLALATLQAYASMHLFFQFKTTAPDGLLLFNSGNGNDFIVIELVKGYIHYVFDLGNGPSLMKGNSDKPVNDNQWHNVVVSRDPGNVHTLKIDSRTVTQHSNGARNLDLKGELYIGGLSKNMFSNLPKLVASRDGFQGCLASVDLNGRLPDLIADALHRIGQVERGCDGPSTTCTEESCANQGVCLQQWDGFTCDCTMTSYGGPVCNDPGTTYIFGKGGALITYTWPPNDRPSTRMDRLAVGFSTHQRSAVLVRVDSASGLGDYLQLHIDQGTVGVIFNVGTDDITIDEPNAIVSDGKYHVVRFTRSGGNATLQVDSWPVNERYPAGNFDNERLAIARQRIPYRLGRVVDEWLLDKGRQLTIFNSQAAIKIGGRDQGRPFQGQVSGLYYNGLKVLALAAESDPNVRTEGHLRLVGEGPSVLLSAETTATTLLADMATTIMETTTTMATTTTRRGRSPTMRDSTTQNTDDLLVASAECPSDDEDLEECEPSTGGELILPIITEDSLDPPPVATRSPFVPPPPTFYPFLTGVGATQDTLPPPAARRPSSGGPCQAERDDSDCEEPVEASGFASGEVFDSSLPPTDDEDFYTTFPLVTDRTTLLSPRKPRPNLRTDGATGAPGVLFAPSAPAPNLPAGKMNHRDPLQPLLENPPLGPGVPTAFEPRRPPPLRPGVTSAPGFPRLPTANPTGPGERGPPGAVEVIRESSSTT

B1: IgSF21 (protein)
chain: YLTVNIEPLPPVVAGDAVTLKCNFKTDGRMREIVWYRVTDGGTIKQKIFTFDAMFSTNYSHMENYRKREDLVYQSTVRLPEVRISDNGPYECHVGIYDRATREKVVLASGNIFLNVMAPPTSIEVVAADSPAPFSRYQAQNFTLVCIVSGGKPAPMVYFKRDGEPIDAVPLTELPAASSGPVQDSRPFRSLLHRDVDDTKMQKSLSLLDTEYRAGRPYTERPARSLTQDPSLFVQPTTENIPETVVSREFPRWVHSAEPVYFLRHSRTPGSDGTVEVRALLTWTLNPQIDNEALFSCEVKHPALSMPMQAEVTLVAPKGPKIMMTPSRARVGDTVRILVHGFQNEVFPEPMFTWTRVGSRLLDGSAEFDGKELVLERVPAELNGSMYRCTAQNPLGSTDTHTRLIVFENPNIPRGTEDSRGSASGPAGVRLTLVLALTVILELT
For the molecule B1, the Kd in experiment [1] was 5.67 nM.

B2: Recombinant human Fc-tagged NRXN2α (human Nrxn2α-Fc, R&D Systems #6636-NX) (Fc fusion)
chain: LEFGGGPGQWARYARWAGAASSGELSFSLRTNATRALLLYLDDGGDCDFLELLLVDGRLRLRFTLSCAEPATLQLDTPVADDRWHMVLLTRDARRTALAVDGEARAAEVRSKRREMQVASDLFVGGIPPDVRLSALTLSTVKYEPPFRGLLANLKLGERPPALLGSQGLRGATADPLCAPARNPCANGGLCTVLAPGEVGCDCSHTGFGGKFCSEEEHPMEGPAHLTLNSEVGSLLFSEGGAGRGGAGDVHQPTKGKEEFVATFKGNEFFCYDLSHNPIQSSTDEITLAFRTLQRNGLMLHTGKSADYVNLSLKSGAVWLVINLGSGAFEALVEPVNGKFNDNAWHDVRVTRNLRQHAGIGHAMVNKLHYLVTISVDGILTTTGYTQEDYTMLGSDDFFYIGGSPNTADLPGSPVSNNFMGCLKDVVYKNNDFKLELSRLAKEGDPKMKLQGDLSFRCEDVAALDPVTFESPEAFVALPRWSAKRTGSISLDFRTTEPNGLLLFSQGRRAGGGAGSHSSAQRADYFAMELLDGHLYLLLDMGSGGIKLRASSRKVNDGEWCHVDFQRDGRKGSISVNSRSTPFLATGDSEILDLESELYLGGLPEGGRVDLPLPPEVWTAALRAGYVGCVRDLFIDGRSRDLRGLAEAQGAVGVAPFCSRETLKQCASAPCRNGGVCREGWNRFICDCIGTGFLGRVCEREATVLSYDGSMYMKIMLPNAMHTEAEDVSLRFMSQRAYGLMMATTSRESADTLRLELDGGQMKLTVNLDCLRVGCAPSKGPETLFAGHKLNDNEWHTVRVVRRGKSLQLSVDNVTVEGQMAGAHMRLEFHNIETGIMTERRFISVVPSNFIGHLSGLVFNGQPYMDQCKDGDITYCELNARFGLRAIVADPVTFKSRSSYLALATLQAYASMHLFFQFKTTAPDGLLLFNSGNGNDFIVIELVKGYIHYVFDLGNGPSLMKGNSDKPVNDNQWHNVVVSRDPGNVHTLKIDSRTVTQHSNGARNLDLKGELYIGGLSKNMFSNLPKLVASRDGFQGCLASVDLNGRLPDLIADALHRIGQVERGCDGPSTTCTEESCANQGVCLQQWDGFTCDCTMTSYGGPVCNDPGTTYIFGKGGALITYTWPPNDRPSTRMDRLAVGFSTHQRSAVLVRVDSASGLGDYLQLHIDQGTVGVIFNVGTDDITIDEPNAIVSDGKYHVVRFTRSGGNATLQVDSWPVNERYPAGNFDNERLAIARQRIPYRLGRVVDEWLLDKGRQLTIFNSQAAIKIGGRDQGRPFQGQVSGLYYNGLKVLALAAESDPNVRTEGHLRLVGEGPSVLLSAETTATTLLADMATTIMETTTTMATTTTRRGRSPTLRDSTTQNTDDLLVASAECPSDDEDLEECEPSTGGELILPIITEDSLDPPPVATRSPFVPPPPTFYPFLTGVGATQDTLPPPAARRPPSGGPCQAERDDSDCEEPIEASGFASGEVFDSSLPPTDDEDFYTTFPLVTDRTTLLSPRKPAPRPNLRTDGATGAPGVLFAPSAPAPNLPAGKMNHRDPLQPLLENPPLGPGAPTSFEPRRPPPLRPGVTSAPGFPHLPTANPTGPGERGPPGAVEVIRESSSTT
Turning to B2, in experiment [2], the off-rate constant (koff) was found to be 0.00101 s⁻¹.
